For one assay, the target named is T1, Cynomolgus rIL-1β (cynomolgus, UniProt P79182 117-268, limits assumed).
T1 construct: also called cynomolgus IL-1β
Briefly: cross-reactivity table (direct ELISA). As for the experimental part:
(§1) Plate wells were coated with each protein and incubated overnight at 4° C.
In general terms: An ELISA detects its analyte on a solid surface through an enzyme-linked reagent.

The target in a further assay is T2, Rhesus monkey rIL-1β (rhesus monkey, UniProt P48090 117-269).
T2 construct: also called rhesus macaque IL-1β; rhesus IL-1β
T2 sequence (P48090 117-269 limits assumed): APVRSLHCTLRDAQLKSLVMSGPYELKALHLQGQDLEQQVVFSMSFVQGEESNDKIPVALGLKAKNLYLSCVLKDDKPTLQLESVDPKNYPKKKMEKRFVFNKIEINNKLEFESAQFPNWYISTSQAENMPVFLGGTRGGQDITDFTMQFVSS
Briefly: cross-reactivity table (direct ELISA). Here is the method: as §1

Assay [1] deals with T3, recombinant human IL-1β (human, UniProt P01584 117-269). As to the kind of experiment: cell-based or functional assay.
For a further assay, the target named is T4, recombinant canine IL-1β (canine, UniProt Q28292 115-266, limits assumed).
T4 construct: also called Canine rIL-1β
T4 sequence (looked up): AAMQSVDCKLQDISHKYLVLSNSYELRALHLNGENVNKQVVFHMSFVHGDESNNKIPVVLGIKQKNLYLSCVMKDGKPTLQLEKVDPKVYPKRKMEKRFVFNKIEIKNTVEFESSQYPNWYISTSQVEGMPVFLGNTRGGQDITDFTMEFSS
As to the kind of experiment: cross-reactivity table (Table 2), direct ELISA; text: no detectable binding to canine IL-1β. Here is the method: Recombinant human IL-1β 1 mg/ml was diluted with the coating buffer to a final concentration of 2 μg/ml. 50 μl was added to the designated wells. Canine IL-1β, porcine/swine IL-1β, guinea pig IL-1β, human IL-1ra and human IL-6 were diluted in the coating buffer and added to distinct wells on the plates. Plates were incubated overnight at 4° C. […] The bound scFvs and control antibodies were detected with Protein L-Peroxidase L-HRP (1:3000), rabbit anti-goat HRP (1:5000) and streptavidin HRP (1:3000).

In assay [2] the target is T3, recombinant human IL-1β. As to the kind of experiment: cell-based or functional assay. This is another data set of the same source.
Assay [3] has as its target T3, recombinant human IL-1β. Briefly: Kinetic Exclusion Assay (KinExA, Sapidyne). An excerpt:
Kd is a specific type of equilibrium constant that measures the propensity of a larger object to separate (dissociate) reversibly into smaller components. A Kd analysis requires immobilization of one interaction partner (the […] binding partner) to a solid phase which is then used as a probe to capture the other interaction partner. For each experiment, one of the binding partners is titrated in a background of the captured binding partner (CBP) and allowed to reach equilibrium. The solutions are then briefly exposed to the solid phase and a portion of free CBP is captured. The captured CBP is then labelled with a fluorescent secondary molecule. The signals generated from CBP are used to calculate the Kd value which is directly proportional to the concentration of free CBP in the equilibrated sample.

Assay [4] has as its target T3, recombinant human IL-1β. As to the kind of experiment: cell-based or functional assay. This is another data set of the same source.

From patent US20190345246A1 (TYMPOBIO, published 2019) come the findings set out here.

T1 sequence (P79182 117-268 limits assumed): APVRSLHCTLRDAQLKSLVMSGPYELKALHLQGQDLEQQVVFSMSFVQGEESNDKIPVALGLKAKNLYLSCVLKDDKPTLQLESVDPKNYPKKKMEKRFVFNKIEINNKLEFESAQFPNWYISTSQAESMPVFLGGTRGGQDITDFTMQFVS

B1: DLX-2323 (scFv)
scFv: EIVMTQSPSTLSASVGDRVIITCQASQSIDNWLSWYQQKPGKAPKLLIYRASTLASGVPSRFSGSGSGAEFTLTISSLQPDDFATYYCQNTGGGVSIAFGQGTKLTVLGGGGGSGGGGSGGGGSGGGGSEVQLVESGGGLVQPGGSLRLSCTASGFSLSSAAMAWVRQAPGKGLEWVGIIYDSASTYYASWAKGRFTISRDTSKNTVYLQMNSLRAEDTAVYYCARERAIFSGDFVLWGQGTLVTVSS
notes: Humanized single chain antibody fragment expressed in E. coli (inclusion bodies)
In the case of B1, the binding result with Cynomolgus rIL-1β is recorded as “binds”. Further, the binding result with Rhesus monkey rIL-1β was “binds”. Moreover, in the assay with recombinant human IL-1β [1], the “IC50 (column head of Table 2)” value lay within 2 to 3 pM. Moreover, the binding result with recombinant canine IL-1β is listed as “no binding”. Further, in the assay with recombinant human IL-1β [2], the “IC50, inhibition of IL-1β-induced IL-6 release from normal human dermal fibroblasts (IL-6 ELISA)” value was 3 pM and the “potency relative to IL-1RA, inhibition of IL-1β-induced IL-6 release” value is 10 fold. In the assay with recombinant human IL-1β [3], the Kd (commonly the concentration at which binding is half-saturated) turned out to be 0.756 pM; the koff (as a rule, the rate constant with which the complex falls apart) stood at 5.7e-06 s⁻¹; the kon (usually a measure of how fast the partners come together) was 7.55e+06 M⁻¹ s⁻¹.

B2: canakinumab (antibody, V domains shown)
VH: QVQLVESGGGVVQPGRSLRLSCAASGFTFSVYGMNWVRQAPGKGLEWVAIIWYDGDNQYYADSVKGRFTISRDNSKNTLYLQMNGLRAEDTAVYYCARDLRTGPFDYWGQGTLVTVSS
VL: EIVLTQSPDFQSVTPKEKVTITCRASQSIGSSLHWYQQKPDQSPKLLIKYASQSFSGVPSRFSGSGSGTDFTLTINSLEAEDAAAYYCHQSSSLPFTFGPGTKVDIKR
For B2, in the assay with recombinant human IL-1β [4], the “IC50 (read off the curve), inhibition of rhIL-1β-induced IL-6 release from human dermal fibroblasts” value is roughly 60 pM.
